Results from patent publication US20200317768A1 (published 2020).

Assays:
Assay in all cases: SPR (BIACORE), antibody captured, FcgR analyte
[1] = molecular target: T1, cynomolgus monkey FcγRIIa1 extracellular domain with C-terminal His-tag (cynomolgus monkey)
T1 construct: also called cyno FcgRIIa1; cynoFcγRIIa1
T1 chain: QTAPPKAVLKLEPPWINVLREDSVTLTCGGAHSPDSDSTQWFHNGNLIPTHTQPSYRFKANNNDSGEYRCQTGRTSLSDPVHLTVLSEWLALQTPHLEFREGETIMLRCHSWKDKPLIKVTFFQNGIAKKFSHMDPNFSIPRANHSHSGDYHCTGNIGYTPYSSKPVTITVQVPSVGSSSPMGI
Description: (§1) The kinetic analysis of interactions between these antibodies and FcγR was carried out using BIACORE® T200 or BIACORE® 4000 (GE Healthcare). HBS-EP+ (GE Healthcare) was used as the running buffer, and the measurement temperature was set to 25° C. A chip produced by immobilizing Protein A. Protein A/G or mouse anti-human IgG kappa light chain (BD Biosciences) onto a Series S Sensor Chip CM4 or CM5 (GE Healthcare) by the amine-coupling method was used. […] After the measurement, the antibody captured on the chip was washed off by allowing reaction with 10 mM glycine-HCl, pH1.5 and 25 mM NaOH so that the chip was regenerated and used repeatedly. The sensorgrams obtained as measurement results were analyzed by the 1:1 Langmuir binding model using the BIACORE® Evaluation Software to calculate the binding rate constant ka (L/mol/s) and dissociation rate constant kd (l/s), and the dissociation constant KD (mol/L) was calculated from these values. […] Regarding such interactions, KD values were calculated using the following 1:1 binding model described in BIACORE® T100 Software Handbook BR1006-48 Edition AE.
(§2) The behavior of interacting molecules according to the 1:1 binding model on BIACORE® can be described by Equation 1: Req=C·R max/(KD+C)+RI, wherein, Req is a plot of steady-state binding levels to analyte concentration. C is concentration, RI is bulk refractive index contribution in the sample, and Rmax is analyte binding capacity of the surface. When this equation is rearranged, KD can be expressed as Equation 2: KD=C·Rmax/(Req−RI)−C. KD can be calculated by substituting the values of Rmax, RI, and C into Equation 1 or Equation 2. From the current measurement conditions, RI=0, C=2 μmol/L can be used.

[2] = molecular target: T2, cynomolgus monkey FcγRIIa2 extracellular domain with C-terminal His-tag (cynomolgus monkey)
T2 construct: also called cyno FcgRIIa2; cynoFcγRIIa2
T2 chain: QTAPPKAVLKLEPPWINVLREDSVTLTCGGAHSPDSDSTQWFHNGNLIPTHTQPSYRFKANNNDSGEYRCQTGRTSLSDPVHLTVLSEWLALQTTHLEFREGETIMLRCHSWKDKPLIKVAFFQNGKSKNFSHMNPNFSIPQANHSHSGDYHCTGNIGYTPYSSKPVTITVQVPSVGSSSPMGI
Description: as §1, §2

[3] = molecular target: T3, cynomolgus monkey FcγRIIa3 extracellular domain with C-terminal His-tag (cynomolgus monkey)
T3 construct: also called cyno FcgRIIa3; cynoFcγRIIa3
T3 chain: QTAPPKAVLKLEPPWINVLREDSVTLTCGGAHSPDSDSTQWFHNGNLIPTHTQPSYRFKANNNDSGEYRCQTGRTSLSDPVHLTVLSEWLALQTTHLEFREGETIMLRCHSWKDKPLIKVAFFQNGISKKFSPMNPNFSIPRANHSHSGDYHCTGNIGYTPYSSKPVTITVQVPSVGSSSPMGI
Description: as §1, §2

[4] = molecular target: T4, cynomolgus monkey FcγRIIb extracellular domain with C-terminal His-tag (cynomolgus monkey)
T4 construct: also called cyno FcgRIIb; cynoFcγRIIb
T4 chain: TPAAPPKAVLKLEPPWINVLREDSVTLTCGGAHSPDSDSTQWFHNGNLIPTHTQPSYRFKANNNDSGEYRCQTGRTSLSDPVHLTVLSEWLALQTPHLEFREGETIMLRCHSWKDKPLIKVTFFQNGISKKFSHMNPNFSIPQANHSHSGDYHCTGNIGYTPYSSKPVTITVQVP
Description: as §1, §2

[5] = molecular target: T5, cynomolgus monkey FcγRIIIaS extracellular domain with C-terminal His-tag (cynomolgus monkey, UniProt Q8SPW2 21-206 at identity 1.00))
T5 construct: also called cyno FcgRIIIaS; cynoFcγRIIIaS
T5 chain: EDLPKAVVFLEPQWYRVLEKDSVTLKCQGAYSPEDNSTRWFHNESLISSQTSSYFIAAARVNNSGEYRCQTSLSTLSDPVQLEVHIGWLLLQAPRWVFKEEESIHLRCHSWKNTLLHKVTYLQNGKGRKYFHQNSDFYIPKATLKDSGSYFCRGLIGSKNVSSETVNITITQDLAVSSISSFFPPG
Description: as §1, §2

[6] = molecular target: T6, human FcγRIIaH extracellular domain with C-terminal His-tag (human, UniProt P12318 34-217)
T6 construct: also called human FcgRIIaH; FcγRIIa (type H)
T6 sequence: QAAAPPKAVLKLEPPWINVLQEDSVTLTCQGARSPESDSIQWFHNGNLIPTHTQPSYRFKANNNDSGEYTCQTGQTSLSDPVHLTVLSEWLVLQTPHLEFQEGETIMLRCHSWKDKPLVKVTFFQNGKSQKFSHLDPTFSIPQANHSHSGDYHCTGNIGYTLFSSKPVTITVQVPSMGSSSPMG
Description: as §1, §2

[7] = molecular target: T7, human FcγRIIaR extracellular domain with C-terminal His-tag (human, UniProt P12318 34-217)
T7 construct: also called human FcgRIIaR; FcγRIIa (type R)
T7 chain: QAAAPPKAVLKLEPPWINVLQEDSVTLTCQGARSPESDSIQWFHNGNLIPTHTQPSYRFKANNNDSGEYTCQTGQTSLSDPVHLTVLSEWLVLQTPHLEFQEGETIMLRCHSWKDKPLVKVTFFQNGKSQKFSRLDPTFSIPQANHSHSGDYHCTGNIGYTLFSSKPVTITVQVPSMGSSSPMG
Description: as §1, §2

[8] = molecular target: T8, human FcγRIIb extracellular domain with C-terminal His-tag (human, UniProt P31994 43-217)
T8 construct: also called human FcgRIIb
T8 sequence: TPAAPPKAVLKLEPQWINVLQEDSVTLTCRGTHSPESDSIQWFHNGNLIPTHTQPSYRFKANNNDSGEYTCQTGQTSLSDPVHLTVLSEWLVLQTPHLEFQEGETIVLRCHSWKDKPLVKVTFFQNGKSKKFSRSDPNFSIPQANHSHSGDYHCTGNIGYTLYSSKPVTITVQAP
Description: as §1, §2

[9] = molecular target: T9, human FcγRIIIaV extracellular domain with C-terminal His-tag (human, UniProt P08637 17-208)
T9 construct: also called human FcgRIIIaV
Description: as §1, §2

T9 sequence (P08637 17-208 F176V): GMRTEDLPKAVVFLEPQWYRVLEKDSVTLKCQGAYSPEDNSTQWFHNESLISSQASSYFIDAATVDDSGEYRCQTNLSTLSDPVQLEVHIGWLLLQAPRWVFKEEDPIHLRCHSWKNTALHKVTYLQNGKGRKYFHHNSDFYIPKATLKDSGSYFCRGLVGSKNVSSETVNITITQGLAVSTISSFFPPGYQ

Kd [1]: 960 nM
Kd [2]: 1100 nM
Kd [3]: 3000 nM
Kd [4]: 280 nM
Kd [5]: 2400 nM
Kd [6]: 250 nM
Kd [7]: 620 nM
Kd [8]: 1300 nM
Kd [9]: 5700 nM
B1: M103205H795-MY538/M103202L889-SK1 (A231G/L234W/G236T/H268D/Q295L/A330K) (antibody, human IgG1, kappa)
heavy: QVTLKESGPVLVKPTETLTLTCTVSGIDLSHDDISWVRQAPGKGLEWVGIISYAGSTYYASWAKGRLTISKDTSKNQVVLTMTNMDPVDTATYYCARGVPAYSHGGDLWGQGTLVTVSSASTKGPSVFPLAPSSKSTSGGTAALGCLVKDYFPEPVTVSWNSGALTSGVHTFPAVLQSSGLYSLSSVVTVPSSSLGTQTYICNVNHKPSNTKVDKKVEPKSCDKTHTCPPCPGPEWLTGPSVFLFPPKPKDTLMISRTPEVTCVVVDVSDEDPEVKFNWYVDGVEVHNAKTKPREELYNSTYRVVSVLTVLHQDWLNGKEYKCKVSNKALPKPIEKTISKAKGQPREPQVYTLPPSREEMTKNQVSLTCLVKGFYPSDIAVEWESNGQPENNYKTTPPVLDSDGSFFLYSKLTVDKSRWQQGNVFSCSVMHEALHNHYTQKSLSLSP
light: DIVMTQSPATLSLSPGERATLSCTSSQSVYHANWLSWFQQKPGQPPKLLIYWASTLAYGVPSRFSGSGSGTDFTLTISSLQPEDAATYYCAGGYGGGRYAFGQGTKVEIKRTVAAPSVFIFPPSDEQLKSGTASVVCLLNNFYPREAKVQWKVDNALQSGNSQESVTEQDSKDSTYSLSSTLTLSKADYEKHKVYACEVTHQGLSSPVTKSFNRGEC
notes: Substitutions introduced into M103205H795-SG1, expressed with M103202L889-SK1 as light chain; EU numbering
